pKd: −log10 of the molar value.
Each sequence was assayed against HLA-A*02:01 (assay: IEDB peptide-MHC binding, purified MHC/direct/fluorescence; filed as Kd, often an IC50 or EC50 that approximates it; ≥ and ≤ were set here for values at or beyond the usual limits of such assays). Conditions: source organism: Mycobacterium tuberculosis H37Rv.
With AIYDTMQYV the pKd was at least 9.00.
In the case of ALDEGLLPV, the pKd was at least 9.00.
For ALLGGLRPV, the pKd was at least 9.00.
Work on AMAGSIDLL yielded a pKd of 8.40.
For GMFANRWII, the pKd was 7.57.
HLDDVGFLV showed a pKd of at least 9.00.
In the case of KLQERLAKL, the pKd was 7.74.
For LLYDGSFAV, the pKd was at least 9.00.
Work on SLIDLLHKI yielded a pKd of at least 9.00.
With SLRNWIATL the pKd was 7.18.
SLWKDGAPL gave a pKd of 8.30.
Sequence WLYPGAQNL has a pKd of at least 9.00.
With YLLADTFTV the pKd was at least 9.00.
YLPDPTVGV showed a pKd of at least 9.00.
With YVYPDNLPV the pKd was 8.70.

From the Immune Epitope Database (IEDB)
